According to patent US20230183793:
Read-outs that look alike come from different tables or passages of the source.

Assays:
[1] = test system: M.MpeI N374K (Mycoplasma penetrans); conditions: CpGs modified with SAM or CxSAM, bisulfite sequencing
[2] = test system: M.MpeI WT K374N (reversion to wild type) (Mycoplasma penetrans); conditions: CpGs modified with SAM; no transfer with CxSAM
[3] = test system: M.MpeI N374K (Mycoplasma penetrans); conditions: 5mC on one strand of CpG; CxSAM preferred over SAM 1.3-fold; HpaII protection assay
[4] = target: T1, Dcm N436K (Escherichia coli) (UniProt P0AED9); assay: cell_activity; conditions: CCWGG sites carboxymethylated; also makes 5mC
T1 sequence: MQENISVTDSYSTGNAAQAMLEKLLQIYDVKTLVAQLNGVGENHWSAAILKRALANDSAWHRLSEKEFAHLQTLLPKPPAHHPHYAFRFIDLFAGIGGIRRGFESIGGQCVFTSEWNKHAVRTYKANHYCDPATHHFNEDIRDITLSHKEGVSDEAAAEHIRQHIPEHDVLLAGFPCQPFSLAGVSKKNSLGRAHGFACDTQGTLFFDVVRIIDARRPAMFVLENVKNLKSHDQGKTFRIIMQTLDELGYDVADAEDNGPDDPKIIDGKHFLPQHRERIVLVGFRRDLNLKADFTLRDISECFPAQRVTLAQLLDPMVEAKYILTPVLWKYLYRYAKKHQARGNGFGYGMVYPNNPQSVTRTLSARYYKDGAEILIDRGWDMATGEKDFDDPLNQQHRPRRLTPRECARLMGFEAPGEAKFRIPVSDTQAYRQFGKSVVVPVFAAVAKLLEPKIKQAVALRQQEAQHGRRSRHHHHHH

[5] = test system: M.MpeI N374K (Mycoplasma penetrans); conditions: CpGs converted to 5cxmC with CxSAM; ~60% 5mC with SAM; bisulfite sequencing

pUC19 plasmid DNA
activity [1]: > 70%
activity [2]: 100%

hemimethylated CpG fluorophore-labelled oligonucleotide
binding signal [3]: 1.3 fold

E. coli genomic DNA (dam-/dcm-)
activity [4]: > 1.5%

lambda phage genomic DNA, unmethylated
activity [5]: 50%
